Experimental data from patent US20260022175A1 (Chugai, published 2026).
Where a chain is given by its changes, count along the chain named. Each block holds one binder with its values, some of them ahead of it.

Columns and labels:
human CTLA4 [1] = biological target: T1, human CTLA4 (human); assay: SPR, 37C, antibody captured by anti-mouse IgG, ATP 10 uM
T1 construct: also called hCTLA4; hCTLA4-His-BAP
Experimental: (§1) 20 mM ACES (pH 7.4), 150 mM NaCl, 2 mM MgCl₂, 0.05% Tween 20 with ATP added to the desired concentrations was used as the running buffer, and the assay was performed at 37° C. First, Rabbit Anti-Mouse IgG (Thermo Fisher Scientific) was immobilized onto Series S Sensor Chips CM5 (GE Healthcare), and the antibody was captured onto the chip by interacting an antibody solution prepared in an ATP-free running buffer. Next, the binding ability of the antibody to human CTLA4 in the presence or absence of ATP was evaluated by interacting with a human CTLA4 solution prepared in a running buffer with ATP added to the desired concentration, or a human CTLA4 solution prepared in an ATP-free running buffer. Chips were regenerated with 25 mM NaOH and 10 mM Glycine-HCl (pH 1.5) and assay was performed by repeatedly capturing antibodies. The dissociation constant of each antibody for CTLA4 was calculated using Biacore T200 Evaluation Software 2.0. Specifically, the binding rate constant ka (L/mol/s) and the dissociation rate constant kd (1/s) were calculated by global fitting of the sensorgrams obtained by the measurement using the 1:1 Langmuir binding model, and the dissociation constant KD (mol/L) was calculated from those values.

human CTLA4 [2] = biological target: T1, human CTLA4; assay: SPR, 37C, antibody captured by anti-mouse IgG, ATP 1 uM
Experimental: as §1

human CTLA4 [3] = biological target: T1, human CTLA4; assay: SPR, 37C, antibody captured by anti-mouse IgG, ATP 100 uM
Experimental: as §1

human CTLA4 [4] = biological target: T1, human CTLA4; assay: SPR Biacore T200, 37C, antibody captured, ATP 1 uM
Experimental: (§2) Biacore T200 was used to measure the binding of the generated antibodies to human CTLA4. 20 mM ACES (pH 7.4), 150 mM NaCl, 2 mM MgCl₂, 0.05% Tween 20 with ATP added to the desired concentration was used as the running buffer, and the assay was performed at 37° C. First, Protein G (CALBIOCHEM) was immobilized onto a Series S Sensor Chip CM3 (GE Healthcare), and the antibodies were captured by interacting an antibody solution prepared in an ATP-free running buffer with the chip. Next, by interacting with a human CTLA4 solution prepared in a running buffer containing ATP to the desired concentration, or a human CTLA4 solution prepared in a running buffer containing no ATP, the binding ability of the antibody to human CTLA4 in the presence or absence of ATP was evaluated. Chips were regenerated with 25 mM NaOH and 10 mM Glycine-HCl (pH 1.5), and assay was performed by repeatedly capturing antibodies. The dissociation constant of each antibody for CTLA4 was calculated using Biacore T200 Evaluation Software 2.0. Specifically, the binding rate constant ka (L/mol/s) and the dissociation rate constant kd (1/s) were calculated by global fitting of the sensorgrams obtained by the measurement, using a 1:1 Langmuir binding model. The dissociation constant KD (mol/L) was calculated from those values. Alternatively, the dissociation constant KD (mol/L) was calculated by the steady state model. In addition, the binding amount of CTLA4 per unit amount of antibody was calculated by correcting the amount of CTLA4 bound as calculated from the sensorgram obtained by the assay with the amount of antibody captured onto the chip surface.
(§3) Next, the binding ability of some variants to mouse CTLA4 and cynomolgus monkey CTLA4 was evaluated.

[5] = biological target: T2, mouse CTLA4 extracellular region linked with a His-tag (mCTLA4-His) (mouse, UniProt P09793 36-161); assay: SPR Biacore T200, 37C, antibody captured, ATP 1 uM
Experimental: as §2, §3

[6] = biological target: T3, cynomolgus monkey CTLA4 (CyCTLA4-His-BAP) (cynomolgus monkey); assay: SPR Biacore T200, 37C, antibody captured, ATP 1 uM
T3 sequence (chain, as listed by the source limits assumed): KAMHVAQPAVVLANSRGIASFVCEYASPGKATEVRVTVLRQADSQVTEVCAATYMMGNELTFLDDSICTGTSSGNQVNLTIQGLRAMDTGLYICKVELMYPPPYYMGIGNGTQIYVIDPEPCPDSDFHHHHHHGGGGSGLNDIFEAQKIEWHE
Experimental: as §2, §3

human CTLA4 [7] = biological target: T1, human CTLA4; assay: SPR Biacore T200, 37C, antibody captured, ATP 10 uM
human CTLA4 [8] = biological target: T1, human CTLA4; assay: SPR Biacore T200, 37C, antibody captured, no ATP, steady state model
Experimental: Biacore T200 was used to measure the binding of the generated antibodies to human CTLA4. 20 mM ACES (pH 7.4), 150 mM NaCl, 2 mM MgCl₂, 0.05% Tween 20 with ATP added to the desired concentration was used as the running buffer, and the assay was performed at 37° C. First, Protein G (CALBIOCHEM) was immobilized onto a Series S Sensor Chip CM3 (GE Healthcare), and the antibodies were captured by interacting an antibody solution prepared in an ATP-free running buffer with the chip. Next, by interacting with a human CTLA4 solution prepared in a running buffer containing ATP to the desired concentration, or a human CTLA4 solution prepared in a running buffer containing no ATP, the binding ability of the antibody to human CTLA4 in the presence or absence of ATP was evaluated. Chips were regenerated with 25 mM NaOH and 10 mM Glycine-HCl (pH 1.5), and assay was performed by repeatedly capturing antibodies. The dissociation constant of each antibody for CTLA4 was calculated using Biacore T200 Evaluation Software 2.0. Specifically, the binding rate constant ka (L/mol/s) and the dissociation rate constant kd (1/s) were calculated by global fitting of the sensorgrams obtained by the measurement, using a 1:1 Langmuir binding model. The dissociation constant KD (mol/L) was calculated from those values. Alternatively, the dissociation constant KD (mol/L) was calculated by the steady state model.

human CTLA4 [9] = biological target: T1, human CTLA4; assay: SPR Biacore T200, 37C, antibody captured, ATP 10 uM; remark: listed apart in the source
human CTLA4 [10] = biological target: T1, human CTLA4; assay: SPR Biacore T200, 37C, antibody captured, ATP 1 uM; remark: listed apart in the source
Experimental: as §2

human CTLA4 [11] = biological target: T1, human CTLA4; assay: SPR Biacore T200, 37C, antibody captured, ADP 10 uM;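 note: antibodies held on a Protein G CM3 chip, human CTLA4 as analyte in ACES pH 7.4 buffer, rates from a global 1:1 Langmuir fit, Kd from rates or steady state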
Experimental: as §2
The binding ability of the generated variants to human CTLA4 in the presence of ADP or AMP was evaluated by Biacore T200 and compared with the binding ability in the presence of ATP.

human CTLA4 [12] = biological target: T1, human CTLA4; assay: SPR Biacore T200, 37C, antibody captured, AMP 10 uM
human CTLA4 [13] = biological target: T1, human CTLA4; assay: SPR Biacore T200, 37C, antibody captured, ATP 100 uM
Experimental: as §2, §3

[14] = biological target: T2, mouse CTLA4 extracellular region linked …; assay: as above
Experimental: as §2, §3

[15] = biological target: T3, cynomolgus monkey CTLA4 …; assay: as above
Experimental: as §2, §3

human CTLA4 [16] = biological target: T1, human CTLA4; assay: SPR Biacore T200, 37C, antibody captured, ATP 10 uM; remark: listed apart in the source
Experimental: as §2, §3

[17] = biological target: T2, mouse CTLA4 extracellular region linked …; assay: as above
Experimental: as §2, §3

[18] = biological target: T3, cynomolgus monkey CTLA4 …; assay: as above
Experimental: as §2, §3

[19] = biological target: T4, human C1q protein (Calbiochem) (human, UniProt P02745 23-245; P02746 28-253; P02747 29-245); assay: ELISA, antibody on the plate, hC1q 3 µg/mL
T4 construct: bought; also called hC1q
T4 sequence (P02745 23-245 limits assumed, chain 1 of 3): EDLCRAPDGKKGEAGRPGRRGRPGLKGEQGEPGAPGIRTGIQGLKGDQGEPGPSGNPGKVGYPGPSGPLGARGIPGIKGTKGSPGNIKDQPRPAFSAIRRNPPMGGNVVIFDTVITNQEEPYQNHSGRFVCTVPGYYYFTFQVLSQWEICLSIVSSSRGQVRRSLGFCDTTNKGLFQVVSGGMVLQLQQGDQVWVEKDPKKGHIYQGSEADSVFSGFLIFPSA
T4 sequence (P02746 28-253 limits assumed, chain 2 of 3): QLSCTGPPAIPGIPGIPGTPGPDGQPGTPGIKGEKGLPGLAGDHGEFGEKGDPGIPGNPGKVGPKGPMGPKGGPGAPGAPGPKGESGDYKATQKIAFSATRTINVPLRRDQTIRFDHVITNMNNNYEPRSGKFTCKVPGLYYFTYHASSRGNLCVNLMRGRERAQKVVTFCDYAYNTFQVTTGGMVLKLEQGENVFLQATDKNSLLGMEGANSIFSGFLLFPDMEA
T4 sequence (P02747 29-245 limits assumed, chain 3 of 3): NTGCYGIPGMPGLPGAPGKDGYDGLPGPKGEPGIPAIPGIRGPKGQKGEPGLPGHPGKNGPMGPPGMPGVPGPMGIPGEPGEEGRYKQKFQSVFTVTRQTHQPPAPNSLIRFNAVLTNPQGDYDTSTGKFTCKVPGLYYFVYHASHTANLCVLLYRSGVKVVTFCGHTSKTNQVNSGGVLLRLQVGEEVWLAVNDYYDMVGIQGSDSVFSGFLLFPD
Experimental: The antigen used was a human C1q protein (hC1q).
First, a 96-well maxisorp plate (Thermo fisher) was coated at 4° C. overnight with 50 μL of solutions containing each antibody prepared at 30, 10, 3, 1, 0.3, 0.1, and 0.03 μg/mL in PBS. Each well of the plate was washed with Wash buffer to remove the antibody not bound to the plate, and then the wells were blocked with 200 μL of Blocking/dilution Buffer at room temperature for 2 hours or longer. After the Blocking/dilution Buffer was removed from each well, hC1q (Calbiochem) prepared such that the final concentration was 3 μg/mL in Blocking/dilution Buffer was added at 50 μL per well. The plate was then allowed to stand at room temperature for 1 hour to allow hC1q to bind to the antibody within each well. After washing with Wash Buffer, 50 μL of an HRP-conjugated anti-hC1q antibody (AbDSerotec) diluted with Blocking/dilution Buffer was added to each well, and the plate was incubated while standing for 1 hour. After washing with Wash Buffer, TMB single solution (Invitrogen) was added. The color development reaction of the solution in each well was stopped by addition of Stop Buffer, and then the developed color was measured by absorbance at 450 nm and 690 nm.

T1 sequence (chain, as listed by the source limits assumed): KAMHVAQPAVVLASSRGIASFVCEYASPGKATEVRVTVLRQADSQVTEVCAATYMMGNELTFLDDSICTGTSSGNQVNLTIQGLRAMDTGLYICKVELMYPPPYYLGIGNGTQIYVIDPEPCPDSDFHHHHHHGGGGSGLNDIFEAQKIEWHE

B2: 04H1654-mFa55m2P1/04L1610-ml0r (antibody, mouse IgG2a)
heavy: QVQLVESGGGVVQPGGSLRLSCAASGFTFSSKTMNWVRQAPGKGLEWVSSISTQSHYIYYARSVRGRFTISRDNAKNSLYLQMNSLRAEDTAVYYCARYGKREDMLWVFDYWGQGTLVTVSSAKTTAPSVYPLAPVCGDTTGSSVTLGCLVKGYFPEPVTLTWNSGSLSSGVHTFPAVLQSDLYTLSSSVTVTSSTWPSQSITCNVAHPASSTKVDKKIEPRGPTIKPCPPCKCPAPNLLGGPDVFIFPPKIKDVLMISLSPIVTCVVVDVSEDDPDVQISWFVNNVEVHTAQTQTHREDYNSTLRVVSALPIQHQDWMSGKEFKCKVNNKDLPAPIERTISKPKGSVRAPQVYVLPPPEEEMTKKQVTLTCMVTDFMPEDIYVEWTNNGKTELNYKNTEPVLRSDGSYFMYSKLRVEKKNWVERNSYSCSVVHEGLHNHHTTKSFSRTPGK
light: QSALTQPPSASGSPGQSVTISCEGPSTGVGDYNWVHWYQQHPGKAPKLMIYFTSKKPSGVPDRFSGSKSGNTASLTVSGLQAEDEADYYCQTYAAPLGPMFGGGTKLTVLGQPKSSPSVTLFPPSSEELETNKATLVCTITDFYPGVVTVDWKVDGTPVTQGMETTQPSKQSNNKYMASSYLTLTARAWERHSSYSCQVTHEGHTVEKSLSRADCS
notes: Mouse constant regions; also called one arm of SW1610-mFa55
Kd (human CTLA4 [1]): 17 nM
Kd (human CTLA4 [2]): 58 nM
Kd (human CTLA4 [3]): 8.5 nM

B5: 04H1656-mFa55m2N1/04L1610-ml0r (antibody, mouse IgG2a)
heavy: B2 heavy with R62E, K101A, R404D, K414E
light: B2 light
notes: Mouse constant regions; also called other arm of SW1610-mFa55
Kd (human CTLA4 [1]): 13 nM
Kd (human CTLA4 [2]): 47 nM
Kd (human CTLA4 [3]): 7.4 nM

B6: 04H1389-G1m/04L1615-k0MT (antibody, human IgG1, kappa)
heavy: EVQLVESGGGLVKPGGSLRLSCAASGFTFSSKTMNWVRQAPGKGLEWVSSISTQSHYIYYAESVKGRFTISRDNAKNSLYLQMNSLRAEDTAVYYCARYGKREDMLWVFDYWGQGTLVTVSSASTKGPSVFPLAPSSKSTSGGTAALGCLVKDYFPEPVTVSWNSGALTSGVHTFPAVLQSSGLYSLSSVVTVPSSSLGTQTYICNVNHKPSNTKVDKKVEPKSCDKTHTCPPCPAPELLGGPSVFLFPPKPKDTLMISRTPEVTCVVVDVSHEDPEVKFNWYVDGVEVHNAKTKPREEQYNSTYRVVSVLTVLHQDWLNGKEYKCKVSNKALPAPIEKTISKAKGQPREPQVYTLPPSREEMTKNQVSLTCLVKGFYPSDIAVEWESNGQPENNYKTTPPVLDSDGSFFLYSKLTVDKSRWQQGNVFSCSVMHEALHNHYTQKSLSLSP
light: DIVMTQSPLSLPVTPGEPASISCQGPSTGVGDYNYVHWYQQKPGQAPRLLIYFTSKKPSGVPDRFSGSGSGTDFTLKISRVEAEDVGVYYCQTYAAPLGPMFGQGTKLEIKRTVAAPSVFIFPPSDEQLKSGTASVVCLLNNFYPREAKVQWKVDNALQSGNSQESVTEQDSKDSTYSLSSTLTLSKADYEKHKVYACEVTHQGLSSPVTKSFNRGEC
Kd (human CTLA4 [4]): 58 nM
Kd [5]: 160 nM
Kd [6]: 110 nM
Kd (human CTLA4 [7]): 11 nM
koff (human CTLA4 [7]): 0.0015 s⁻¹
kon (human CTLA4 [7]): 130000 M⁻¹ s⁻¹
Kd (human CTLA4 [8]): 2000 nM
Kd (human CTLA4 [9]): 15 nM
Kd (human CTLA4 [10]): 72 nM
Kd (human CTLA4 [11]): 17 nM
koff (human CTLA4 [11]): 0.003 s⁻¹
kon (human CTLA4 [11]): 180000 M⁻¹ s⁻¹
Kd (human CTLA4 [12]): 55 nM
koff (human CTLA4 [12]): 0.0097 s⁻¹
kon (human CTLA4 [12]): 170000 M⁻¹ s⁻¹
Kd (human CTLA4 [13]): 5 nM
Kd [14]: 10 nM
Kd [15]: 9.3 nM
Kd (human CTLA4 [16]): 12 nM
Kd [17]: 26 nM
Kd [18]: 21 nM

B7: H240-Kn461/L73-k0//H240-Hl443/L73-k0 (antibody)
heavy 1: QDQLVQSGAEVKKPGASVKVSCKASGFNIKDTYIQWVRQAPGQGLEWMGRIDPLRKQTKYREKFEGRVTITADTSTNTAYMELSSLRSEDTAVYYCVRSGREFDYWGQGTLVTVSSASTKGPSVFPLAPSSKSTSGGTAALGCLVKDYFPEPVTVSWNSGALTSGVHTFPAVLQSSGLYSLSSVVTVPSSSLGTQTYICNVNHKPSNTKVDKKVEPKSCDKTHTCPPCPAPEFQWGPMVFLFPPKPKDVLMISRTPEVTCVVVDVSDEEPEVKFNWYVDGVEVHNAKTKPREEQYNATYRVVSVLPVLHQDWLNGKEYKCKVSNDALPAPEEKTISKAKGQPREPQVCTLPPSRDELTKNQVSLWCLVKGFYPSDIAVEWESNGQPENNYKTTPPVLDSDGSFFLYSKLTVDKSRWQQGNVFSCSVMHEALHNHYTQKSLSLSP
heavy 2: QDQLVQSGAEVKKPGASVKVSCKASGFNIKDTYIQWVRQAPGQGLEWMGRIDPLRKQTKYREKFEGRVTITADTSTNTAYMELSSLRSEDTAVYYCVRSGREFDYWGQGTLVTVSSASTKGPSVFPLAPSSKSTSGGTAALGCLVKDYFPEPVTVSWNSGALTSGVHTFPAVLQSSGLYSLSSVVTVPSSSLGTQTYICNVNHKPSNTKVDKKVEPKSCDKTHTCPPCPAPELLAGPSVFLFPPKPKDVLMISRTPEVTCVVVDVSHEEPEVKFNWYVDGVEVHNAKTKPREEQYNATYRVVSVLPVLHQDWLNGKEYKCKVSNDALPAPEEETISKAKGQPREPQVYTLPPSRCELTKNQVSLSCAVKGFYPSDIAVEWESNGQPENNYKTTPPVLDSDGSFFLVSKLTVDKSRWQQGNVFSCSVMHEALHNHYTQKSLSLSP
light: DIQMTQSPSSLSASVGDRVTITCRASQDIHKYIAWYQQKPGQAPRLLIQYTSTLQPGVPSRFSGSGSGTDYTFTISSLQPEDIATYYCLQYEQLRTFGGGTKVEIKRTVAAPSVFIFPPSDEQLKSGTASVVCLLNNFYPREAKVQWKVDNALQSGNSQESVTEQDSKDSTYSLSSTLTLSKADYEKHKVYACEVTHQGLSSPVTKSFNRGEC
notes: also called EGL-ART8; ART8; copies: 1 + 1 + 2
binding result [19]: binds

B8: H240-Kn494/L73-k0//H240-Hl514/L73-k0 (antibody)
heavy 1: B7 heavy 1 with D325K
heavy 2: B7 heavy 2 with A235G
light: B7 light
notes: also called EGL-ART10; ART10; copies: 1 + 1 + 2
binding result [19]: binds

B9: H240-Kn496/L73-k0//H240-Hl516/L73-k0 (antibody)
heavy 1: B7 heavy 1 with D325K, E331I
heavy 2: B7 heavy 2 with A235G, E331I
light: B7 light
notes: also called EGL-ART11; ART11; copies: 1 + 1 + 2
binding result [19]: binds

B10: 04H1654-G1m/04L1612-lam1 (antibody, human IgG1, lambda)
heavy: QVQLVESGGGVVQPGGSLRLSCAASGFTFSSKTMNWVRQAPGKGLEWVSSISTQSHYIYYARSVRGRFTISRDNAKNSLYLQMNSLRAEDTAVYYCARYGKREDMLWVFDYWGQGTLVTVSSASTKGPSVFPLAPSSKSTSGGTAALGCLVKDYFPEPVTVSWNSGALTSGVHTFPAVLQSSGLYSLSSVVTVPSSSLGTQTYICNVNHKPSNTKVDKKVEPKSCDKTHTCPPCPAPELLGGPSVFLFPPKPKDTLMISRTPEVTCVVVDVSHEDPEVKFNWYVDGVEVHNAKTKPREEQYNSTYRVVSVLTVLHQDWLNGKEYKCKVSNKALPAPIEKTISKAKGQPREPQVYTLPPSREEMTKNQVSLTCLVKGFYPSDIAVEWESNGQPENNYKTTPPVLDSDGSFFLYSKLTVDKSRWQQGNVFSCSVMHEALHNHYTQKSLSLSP
light: QSALTQPPSASGSPGQSVTISCEGPSTGVGDYTYVHWYQQHPGKAPKLMIYFTSKKPSGVPDRFSGSKSGNTASLTVSGLQAEDEADYYCQTYAAPLGPMFGGGTKLTVLGQPKAAPSVTLFPPSSEELQANKATLVCLISDFYPGAVTVAWKADSSPVKAGVETTTPSKQSNNKYAASSYLSLTPEQWKSHRSYSCQVTHEGSTVEKTVAPTECS
Kd (human CTLA4 [4]): 170 nM
Kd [5]: 390 nM
Kd [6]: 310 nM
Kd (human CTLA4 [7]): 36 nM
koff (human CTLA4 [7]): 0.0027 s⁻¹
kon (human CTLA4 [7]): 74000 M⁻¹ s⁻¹
Kd (human CTLA4 [8]): 4800 nM
Kd (human CTLA4 [9]): 33 nM
Kd (human CTLA4 [10]): 200 nM
Kd (human CTLA4 [11]): 56 nM
koff (human CTLA4 [11]): 0.005 s⁻¹
kon (human CTLA4 [11]): 89000 M⁻¹ s⁻¹
Kd (human CTLA4 [12]): 170 nM
koff (human CTLA4 [12]): 0.016 s⁻¹
kon (human CTLA4 [12]): 94000 M⁻¹ s⁻¹
Kd (human CTLA4 [13]): 11 nM
Kd [14]: 18 nM
Kd [15]: 21 nM
Kd (human CTLA4 [16]): 30 nM
Kd [17]: 48 nM
Kd [18]: 54 nM

More lines, now with the values ahead:

Kd (human CTLA4 [1]): 15 nM
Kd (human CTLA4 [2]): 45 nM
Kd (human CTLA4 [3]): 8.7 nM
B1: 04H1389-mFa55/04L1615-mk1 (antibody, mouse IgG2a, kappa)
heavy: B2 heavy with Q1E, V11L, Q13K, R62E, R65K, R404D
light: DIVMTQSPLSLPVTPGEPASISCQGPSTGVGDYNYVHWYQQKPGQAPRLLIYFTSKKPSGVPDRFSGSGSGTDFTLKISRVEAEDVGVYYCQTYAAPLGPMFGQGTKLEIKRADAAPTVSIFPPSSEQLTSGGASVVCFLNNFYPKDINVKWKIDGSERQNGVLNSWTDQDSKDSTYSMSSTLTLTKDEYERHNSYTCEATHKTSTSPIVKSFNRNEC
notes: Mouse constant regions mFa55 and mk1; also called SW1615-mFa55

Kd (human CTLA4 [1]): 20 nM
Kd (human CTLA4 [2]): 67 nM
Kd (human CTLA4 [3]): 10 nM
B3: 04H1656-mFa55m2N1/04L1612-ml0r (antibody, mouse IgG2a)
heavy: B2 heavy with R62E, K101A, R404D, K414E
light: B2 light with N33T, W34Y
notes: Mouse constant regions; also called other arm of SW1612-mFa55

Kd (human CTLA4 [1]): 29 nM
Kd (human CTLA4 [2]): 94 nM
Kd (human CTLA4 [3]): 12 nM
B4: 04H1654-mFa55m2P1/04L1612-ml0r (antibody, mouse IgG2a)
heavy: B2 heavy
light: B2 light with N33T, W34Y
notes: Mouse constant regions; also called one arm of SW1612-mFa55

Kd (human CTLA4 [4]): 79 nM
Kd [5]: 230 nM
Kd [6]: 120 nM
Kd (human CTLA4 [7]): 15 nM
koff (human CTLA4 [7]): 0.0019 s⁻¹
kon (human CTLA4 [7]): 130000 M⁻¹ s⁻¹
Kd (human CTLA4 [8]): 2200 nM
Kd (human CTLA4 [9]): 19 nM
Kd (human CTLA4 [10]): 98 nM
Kd (human CTLA4 [11]): 25 nM
koff (human CTLA4 [11]): 0.0043 s⁻¹
kon (human CTLA4 [11]): 170000 M⁻¹ s⁻¹
Kd (human CTLA4 [12]): 82 nM
koff (human CTLA4 [12]): 0.014 s⁻¹
kon (human CTLA4 [12]): 170000 M⁻¹ s⁻¹
Kd (human CTLA4 [13]): 6.2 nM
Kd [14]: 14 nM
Kd [15]: 10 nM
Kd (human CTLA4 [16]): 16 nM
Kd [17]: 37 nM
Kd [18]: 26 nM
B11: 04H1656-G1m/04L1610-lam1 (antibody, human IgG1, lambda)
heavy: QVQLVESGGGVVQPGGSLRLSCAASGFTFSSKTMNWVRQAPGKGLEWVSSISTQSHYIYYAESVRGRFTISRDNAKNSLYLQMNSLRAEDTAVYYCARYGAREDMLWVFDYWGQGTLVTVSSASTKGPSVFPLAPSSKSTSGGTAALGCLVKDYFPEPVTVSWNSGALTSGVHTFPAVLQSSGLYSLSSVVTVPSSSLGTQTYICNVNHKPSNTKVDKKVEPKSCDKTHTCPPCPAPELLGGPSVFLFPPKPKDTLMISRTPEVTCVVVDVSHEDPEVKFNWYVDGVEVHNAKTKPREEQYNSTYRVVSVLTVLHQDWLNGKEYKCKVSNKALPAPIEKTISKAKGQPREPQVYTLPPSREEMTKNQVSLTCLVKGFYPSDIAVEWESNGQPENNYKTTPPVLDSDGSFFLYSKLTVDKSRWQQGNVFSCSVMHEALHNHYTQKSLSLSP
light: B10 light with T33N, Y34W
